This experiment concerns the target T1, transformation/transcription domain-associated protein (TRRAP) (human (endogenous in K562), UniProt Q9Y4A5 1-3859).
T1 construct: transformation/transcription domain-associated protein (TRRAP), human; also called TRRAP module; source: endogenous, K562 extract; co-purified with tagged EP400 constructs
The experiment is described as follows: cryo-EM structure; TRRAP-EP400Cter purified by the tagged EP400 truncation 2188-3159, glutaraldehyde cross-linked; 3.4 Å. The following applies: both partners purified.

T1 sequence (Q9Y4A5 whole entry, the tested form may be a part): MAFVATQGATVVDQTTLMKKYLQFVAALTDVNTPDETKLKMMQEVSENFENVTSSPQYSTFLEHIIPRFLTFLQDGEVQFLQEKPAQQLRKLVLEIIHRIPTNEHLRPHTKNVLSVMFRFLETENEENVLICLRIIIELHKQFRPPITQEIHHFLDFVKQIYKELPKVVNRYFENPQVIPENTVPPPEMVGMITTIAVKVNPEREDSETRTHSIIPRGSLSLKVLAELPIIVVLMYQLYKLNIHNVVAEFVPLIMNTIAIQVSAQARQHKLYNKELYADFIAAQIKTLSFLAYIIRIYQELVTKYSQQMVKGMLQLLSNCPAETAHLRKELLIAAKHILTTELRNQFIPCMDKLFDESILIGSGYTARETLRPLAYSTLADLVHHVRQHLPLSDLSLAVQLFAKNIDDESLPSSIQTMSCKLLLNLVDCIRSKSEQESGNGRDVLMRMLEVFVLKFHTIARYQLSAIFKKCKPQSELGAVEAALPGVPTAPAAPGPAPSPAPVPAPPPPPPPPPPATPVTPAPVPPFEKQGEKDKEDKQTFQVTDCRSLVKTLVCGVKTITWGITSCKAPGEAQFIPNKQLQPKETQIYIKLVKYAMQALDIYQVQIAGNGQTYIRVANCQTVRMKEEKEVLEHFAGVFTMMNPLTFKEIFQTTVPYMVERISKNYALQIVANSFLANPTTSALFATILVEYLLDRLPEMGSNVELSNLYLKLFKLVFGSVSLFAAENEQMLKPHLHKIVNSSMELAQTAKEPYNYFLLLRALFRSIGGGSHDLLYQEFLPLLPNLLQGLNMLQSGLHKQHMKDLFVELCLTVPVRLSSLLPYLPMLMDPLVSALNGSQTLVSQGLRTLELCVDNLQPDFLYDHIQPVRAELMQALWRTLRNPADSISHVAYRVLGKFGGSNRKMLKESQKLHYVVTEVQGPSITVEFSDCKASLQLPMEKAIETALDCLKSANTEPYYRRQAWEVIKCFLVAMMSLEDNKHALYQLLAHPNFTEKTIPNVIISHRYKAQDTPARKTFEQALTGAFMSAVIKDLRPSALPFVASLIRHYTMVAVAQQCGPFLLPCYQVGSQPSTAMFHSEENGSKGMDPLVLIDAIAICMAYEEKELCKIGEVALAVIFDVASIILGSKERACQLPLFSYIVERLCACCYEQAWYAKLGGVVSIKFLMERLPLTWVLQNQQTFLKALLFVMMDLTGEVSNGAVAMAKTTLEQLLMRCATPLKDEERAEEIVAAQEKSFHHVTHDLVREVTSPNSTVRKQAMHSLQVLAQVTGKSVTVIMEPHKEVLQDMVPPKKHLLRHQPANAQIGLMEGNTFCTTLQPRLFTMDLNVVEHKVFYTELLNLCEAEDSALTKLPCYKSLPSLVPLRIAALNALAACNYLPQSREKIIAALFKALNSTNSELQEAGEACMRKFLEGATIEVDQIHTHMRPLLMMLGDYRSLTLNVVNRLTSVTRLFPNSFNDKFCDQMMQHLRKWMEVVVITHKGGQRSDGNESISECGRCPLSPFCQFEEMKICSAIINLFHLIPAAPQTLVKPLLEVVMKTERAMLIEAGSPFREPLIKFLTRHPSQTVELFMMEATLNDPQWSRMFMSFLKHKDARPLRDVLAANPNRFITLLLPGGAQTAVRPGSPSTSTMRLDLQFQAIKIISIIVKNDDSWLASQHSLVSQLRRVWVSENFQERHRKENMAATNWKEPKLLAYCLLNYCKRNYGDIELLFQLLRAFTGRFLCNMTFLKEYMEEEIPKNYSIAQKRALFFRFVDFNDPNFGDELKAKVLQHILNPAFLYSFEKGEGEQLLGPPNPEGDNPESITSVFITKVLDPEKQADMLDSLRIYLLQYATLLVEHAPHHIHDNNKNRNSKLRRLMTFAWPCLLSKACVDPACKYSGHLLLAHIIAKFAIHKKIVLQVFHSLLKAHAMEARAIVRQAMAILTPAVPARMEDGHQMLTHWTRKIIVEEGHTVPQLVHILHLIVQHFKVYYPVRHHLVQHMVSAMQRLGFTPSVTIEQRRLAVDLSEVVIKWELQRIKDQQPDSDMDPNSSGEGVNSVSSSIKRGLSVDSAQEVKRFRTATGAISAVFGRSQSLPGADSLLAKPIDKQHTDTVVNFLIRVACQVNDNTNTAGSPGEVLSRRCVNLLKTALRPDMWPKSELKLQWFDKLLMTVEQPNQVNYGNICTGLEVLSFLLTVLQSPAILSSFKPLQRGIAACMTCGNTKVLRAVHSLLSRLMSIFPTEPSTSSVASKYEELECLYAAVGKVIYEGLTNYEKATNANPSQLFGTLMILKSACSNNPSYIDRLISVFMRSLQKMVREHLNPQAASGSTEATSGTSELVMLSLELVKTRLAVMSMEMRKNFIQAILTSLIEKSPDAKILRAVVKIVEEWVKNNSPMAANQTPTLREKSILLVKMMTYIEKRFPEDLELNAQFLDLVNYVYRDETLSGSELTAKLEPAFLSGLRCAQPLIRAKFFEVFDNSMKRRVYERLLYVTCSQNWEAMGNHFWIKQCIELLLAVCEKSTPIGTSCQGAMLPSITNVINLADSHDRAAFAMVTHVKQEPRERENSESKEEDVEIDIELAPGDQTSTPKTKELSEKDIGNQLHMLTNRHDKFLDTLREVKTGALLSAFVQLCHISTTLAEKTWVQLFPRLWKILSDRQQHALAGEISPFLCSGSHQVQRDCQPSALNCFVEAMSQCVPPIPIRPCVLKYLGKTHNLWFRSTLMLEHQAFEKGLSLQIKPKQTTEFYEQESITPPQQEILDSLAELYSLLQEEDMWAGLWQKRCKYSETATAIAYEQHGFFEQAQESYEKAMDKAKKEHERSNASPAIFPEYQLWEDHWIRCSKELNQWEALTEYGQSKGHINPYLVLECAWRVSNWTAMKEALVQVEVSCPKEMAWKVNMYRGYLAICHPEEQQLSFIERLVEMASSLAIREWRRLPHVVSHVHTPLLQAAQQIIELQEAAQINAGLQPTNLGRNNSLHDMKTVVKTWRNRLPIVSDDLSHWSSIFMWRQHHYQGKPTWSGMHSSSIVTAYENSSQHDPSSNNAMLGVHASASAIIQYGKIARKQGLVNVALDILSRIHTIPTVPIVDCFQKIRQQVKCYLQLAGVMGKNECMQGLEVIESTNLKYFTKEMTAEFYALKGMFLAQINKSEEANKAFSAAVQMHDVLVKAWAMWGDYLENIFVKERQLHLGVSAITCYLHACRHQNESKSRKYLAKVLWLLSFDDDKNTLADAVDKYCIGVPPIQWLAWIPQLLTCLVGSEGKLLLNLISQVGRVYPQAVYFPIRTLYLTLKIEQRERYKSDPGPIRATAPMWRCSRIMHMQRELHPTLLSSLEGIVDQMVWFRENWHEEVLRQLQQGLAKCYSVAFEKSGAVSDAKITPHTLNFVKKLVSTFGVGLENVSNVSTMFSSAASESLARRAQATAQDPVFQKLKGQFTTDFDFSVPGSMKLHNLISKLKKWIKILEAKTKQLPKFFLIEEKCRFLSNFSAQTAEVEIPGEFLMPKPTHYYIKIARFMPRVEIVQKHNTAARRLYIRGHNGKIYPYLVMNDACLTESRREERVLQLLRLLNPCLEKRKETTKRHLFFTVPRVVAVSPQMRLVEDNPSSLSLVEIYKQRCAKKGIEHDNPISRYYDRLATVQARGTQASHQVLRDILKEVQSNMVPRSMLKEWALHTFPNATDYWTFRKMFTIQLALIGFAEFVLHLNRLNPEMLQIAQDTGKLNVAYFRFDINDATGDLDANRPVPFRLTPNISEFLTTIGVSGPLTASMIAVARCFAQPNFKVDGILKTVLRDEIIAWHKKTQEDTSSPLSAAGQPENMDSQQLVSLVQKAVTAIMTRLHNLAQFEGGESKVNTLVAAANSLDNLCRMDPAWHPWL

B1: tagged truncation of EP400 containing just the C terminus after the ATPase domain (amino acid 2188 to 3159) (domain or fragment, human, UniProt Q96L91 2188-3159, looked up)
chain: AVMTAVRAWEFWNLKTLQEREARLRLEQEEAELLTYTREDAYSMEYVYEDVDGQTEVMPLWTPPTPPQDDSDIYLDSVMCLMYEATPIPEAKLPPVYVRKERKRHKTDPSAAGRKKKQRHGEAVVPPRSLFDRATPGLLKIRREGKEQKKNILLKQQVPFAKPLPTFAKPTAEPGQDNPEWLISEDWALLQAVKQLLELPLNLTIVSPAHTPNWDLVSDVVNSCSRIYRSSKQCRNRYENVIIPREEGKSKNNRPLRTSQIYAQDENATHTQLYTSHFDLMKMTAGKRSPPIKPLLGMNPFQKNPKHASVLAESGINYDKPLPPIQVASLRAERIAKEKKALADQQKAQQPAVAQPPPPQPQPPPPPQQPPPPLPQPQAAGSQPPAGPPAVQPQPQPQPQTQPQPVQAPAKAQPAITTGGSAAVLAGTIKTSVTGTSMPTGAVSGNVIVNTIAGVPAATFQSINKRLASPVAPGALTTPGGSAPAQVVHTQPPPRAVGSPATATPDLVSMATTQGVRAVTSVTASAVVTTNLTPVQTPARSLVPQVSQATGVQLPGKTITPAHFQLLRQQQQQQQQQQQQQQQQQQQQQQQQQQQQQTTTTSQVQVPQIQGQAQSPAQIKAVGKLTPEHLIKMQKQKLQMPPQPPPPQAQSAPPQPTAQVQVQTSQPPQQQSPQLTTVTAPRPGALLTGTTVANLQVARLTRVPTSQLQAQGQMQTQAPQPAQVALAKPPVVSVPAAVVSSPGVTTLPMNVAGISVAIGQPQKAAGQTVVAQPVHMQQLLKLKQQAVQQQKAIQPQAAQGPAAVQQKITAQQITTPGAQQKVAYAAQPALKTQFLTTPISQAQKLAGAQQVQTQIQVAKLPQVVQQQTPVASIQQVASASQQASPQTVALTQATAAGQQVQMIPAVTATAQVVQQKLIQQQVVTTASAPLQTPGAPNPAQVPASSDSPSQQPKLQMRVPAVRLKTPTKPPCQ
notes: 137 residues (SANT and HD domains) are resolved; also called EP400Cter; C-terminal segment of EP400; source: new cell line expressing the tagged truncation
In the case of B1, the binding result is recorded as “binds”.

Values taken from paper PMC11995519, “Structural insights into the human NuA4/TIP60 acetyltransferase and chromatin remodeling complex” (Science (New York, N.Y.), 2024).
